The text below walks through data of publication PMC10164722, “Crystal Structure of Mesaconyl-CoA Hydratase from Methylorubrum extorquens CM4” (Journal of Microbiology and Biotechnology, 2023).

As usually defined, the stoichiometry N is a count of units in the complex or per binding partner.

This data set concerns the molecule itself. In words: crystal structure; MeMeaC with malic acid, 1.95 Å, space group P6_(3), one molecule in the asymmetric unit; trimer by crystallographic symmetry (PDBePISA also suggested a trimer).

B1: mesaconyl-CoA hydratase from Methylorubrum extorquens CM4 (enzyme, UniProt C5B1K4 1-348, looked up)
chain: MKTNPGRFFEDFRLGETIRHATPRTVTTGDVALYTALYGPRFAVQSSDAFAKAIGHPASPLDDLLTFHVVFGKTVPDVSLNALANLGYAEGGFHRPVYPGETLSTVSEVIGLKESSNRQTGVVYVRSTGSDASGQTVLSYCRWVLVRKRDPEAKIAEEHVPQLAKVVNPADLAHALPPLDPAAYDNALAGSPHRFADYAVGEKIDHVDGMTVEEAEHQIATRLFQNTAKVHFDAVATKETKFGKRLIYGGHVISLARALSFNGLANAFAIGGINAGRHVAPLFAGDTVYAWSEVLETAELPGRSDIGALRLRTVATKNQSCGAYPDKQGEGYDPSVILDLDYWAFIPR
notes: Mesaconyl-CoA hydratase MeaC (locus Mchl_4075) of Methylorubrum extorquens CM4; subdomains printed as residues 1~147 (MeaC^N), 148~190 (MeaC^Br) and 191~348 (MeaC^C); Surmised: cloning into pET30a by NdeI/XhoI with a reverse primer that has no stop codon would put the vector's His6 tag (after Leu-Glu) at the C-terminus; also called MeMeaC; MeaC; source: E. coli BL21(DE3)-T1R, purified (Ni-NTA, …)
Take B1: the “stoichiometry N” value was 3.
